Here are results for three molecules from paper PMC8805405 (Journal of Nanobiotechnology, 2022).

Where a chain is given by its changes, count along the chain named. Read-outs that look alike come from different tables or passages of the source.

This assay concerns the target T1, recombinant human TNF-α (Homo sapiens, UniProt P01375).
T1 construct: tumor necrosis factor alpha, human, recombinant; also called tumor necrosis factor (TNF)-α; source: bought: R&D Systems
Put plainly: BLI; BLItz; human TNF-α (5 μg/mL in 10 mM acetate, pH 5) immobilised on AR2G biosensors by EDC/s-NHS; various concentrations of antibody at room temperature; global fit, BLItz Pro 1.2.

T1 sequence (P01375 77-233): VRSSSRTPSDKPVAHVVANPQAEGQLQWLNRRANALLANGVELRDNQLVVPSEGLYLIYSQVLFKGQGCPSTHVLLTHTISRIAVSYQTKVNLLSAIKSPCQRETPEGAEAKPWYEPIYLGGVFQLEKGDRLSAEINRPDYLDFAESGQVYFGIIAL

B1: humanized anti-TNF-α mAb C5 (C + b) (antibody, V domains shown)
VH: EVQLVESGGGLVKPGGSLRLSCAASGFTFSNHWMNWVRQAPGKGLEWVGEIRSKSINSATHYAAPVKGRFTISRDDSKNTLYLQMNSLKTEDTAVYYCTRNYYGSTYDYWGQGTTVTVSS
VL: EIVLTQSPDFQSVTPKEKVTITCRASQSIGSSLHWYQQKPDQSPKLLIKYASQSFSGVPSRFSGSGSGTDFTLTINSLEAEDAATYYCHQSSSWPFTFGQGTKLEIK
The term Kd denotes a measure of binding affinity in units of concentration. Usually koff stands for the first-order rate constant of dissociation. For orientation: kon means the rate constant with which the complex forms. In the case of B1, the dissociation constant (Kd) is 17.7 nM, the koff was found to be 0.000475 s⁻¹ and the kon turned out to be 26800 M⁻¹ s⁻¹.

B2: humanized anti-TNF-α mAb C3 (B + b) (antibody, V domains shown)
VH: B1 VH
VL: B1 VL with S28F, S92H
notes: VH grafting condition b (Remicade CDRs on human germline IGHV3-15*07-JH5); as the heavy chain of m4; heavy-chain constant region; VL grafting condition B (Remicade CDRs on human germline IGKV6-21*01-JK2); light-chain constant region; source: Expi293, transfected, purified (protein A sepharose)
Consider B2, for which, where the note is “both partners purified”, the Kd stood at 5.5 nM, the koff came to 0.00015 s⁻¹ and the kon worked out at 27200 M⁻¹ s⁻¹.

B3: humanized anti-TNF-α mAb C1 (A + a) (antibody, V domains shown)
VH: B1 VH with A64E, P65S
VL: B1 VL with S28F, I29V, L33I, Q53E, F55M, H89Q, S92H
notes: VH grafting condition a (Remicade CDRs on human germline IGHV3-15*07-JH5); heavy-chain constant region; VL grafting condition A (Remicade CDRs on human germline IGKV6-21*01-JK2); light-chain constant region; source: Expi293, transfected, purified (protein A sepharose)
On to B3, for which, under “both partners purified”, the Kd was 0.935 nM, the off-rate (koff) was determined as 0.000134 s⁻¹ and the on-rate constant (kon) is 143000 M⁻¹ s⁻¹.
